This is an account of results in article PMC4447340.

This test has as its target Cyclophilin J (human) (UniProt Q9H2H8).
Chain of UniProt Q9H2H8 (Q9H2H8 whole entry): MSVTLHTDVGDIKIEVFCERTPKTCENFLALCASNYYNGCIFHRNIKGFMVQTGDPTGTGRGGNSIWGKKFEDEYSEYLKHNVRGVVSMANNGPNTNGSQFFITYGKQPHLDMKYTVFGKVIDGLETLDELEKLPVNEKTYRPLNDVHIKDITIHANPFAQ

For the substance Cyclosporin A (peptide), the inhibition of the PPIase activity of CYPJ (chymotrypsin-coupled assay, 13.1 μM CYPJ, 1-16 μM CsA) was 12 µM.
